{Fluorescein} = fluorescein label (binding site for anti-fluorescein Fab-HRP); {Biotin} = biotin (capture probe anchor)
What was measured:
Assay type in all cases: binding
bacterial 16S rRNA [1] = test: Species specificity of short probe pairs, 16 sensor array at ambient temperature (Example 5); details: for Species detected: ambient temperature hybridization; for Species not detected: * cross-reactivity at a level significantly less than with the target species
bacterial 16S rRNA [2] = test: Clinical validity study: UTI Chip on blinded clinical urine specimens
Procedure: Amperometric detection of bacterial 16S rRNA. An overview of the electrochemical sensor detection strategy is presented in panel C of FIG. 1. One ml of bacteria in Luria broth, inoculated clean urine, or clinical urine samples was centrifuged at 10,000×g for 5 min. The supernatant was discarded and the bacteria were lysed by resuspension of the pellet in 10 μl of 1 M NaOH and incubation at room temperature for 5 min. In some experiments, addition of 1M NaOH was preceded by resuspension of the bacterial pellet in 10 μl of 0.1% Triton X-100, 2 mM EDTA, and 1 mg/ml lysozyme (Sigma) in 20 mM Tris-HCl, pH 8.0, and incubation at room temperature for 5 min. 50 μl of the detector probe (0.25 μM) in 2.5% bovine serum albumin (Sigma, St. Louis, Mo.) 1 M phosphate buffer, pH 7.4, were added to the bacterial lysate and incubated for 10 min at 65° C. to allow target-probe hybridization. 4 μl of the bacterial lysate/detector probe mixture was deposited on each of the working electrodes in the sensor array and incubated for 15 min at 65° C. in a humidified chamber. After washing and drying, 4 μl of 0.5 U/ml anti-fluorescein horseradish peroxidase (HRP) Fab fragments (Roche, diluted in 0.5% casein in 10 mM phosphate buffered saline, pH 7.4) were deposited on each of the working electrodes for 15 min. After washing and drying, a prefabricated plastic well manifold (GeneFluidics, Monterey Park, Calif.) was bonded to the sensor array. The sensor array was put into the chip reader (FIG. 18) and 50 μl of 3,3′,5,5′-tetramethylbenzidine (TMB), H2O2 solution (K-Blue Low Activity TMB Substrate, Neogen, Lexington, Ky.) was placed on each of the sensors in the array so as to cover all three electrodes of each sensor. Electrochemical measurements are immediately and simultaneously taken for all 16 sensors. For each array, negative control (NC) sensors were tested including the UNI capture probe, detector probe, and 2.5% bovine serum albumin (Sigma, St, Louis, Mo.) in 1 M phosphate buffer, pH 7.4, instead of bacterial lysate. The entire assay protocol was completed within 45 min from the time when bacterial lysis was commenced. Amperometric current vs. time was measured using a multichannel potentiostat (GeneFluidics). The voltage was fixed at −200 mV (vs. reference), and the electroreduction current was measured at 60 s after the HRP redox reaction reached steady state.
Clinical validity study design. Clinical urine specimens were received from routine urine cultures collected from inpatients and outpatients and submitted to the UCLA Clinical Microbiology Laboratory. Routine plating on tripticase soy agar with 5% sheep blood was performed on each specimen for phenotypic identification and colony counting while an aliquot of each specimen was held at 4° C. overnight. On the day after plating, specimens were selected for inclusion in the study on the basis of a rapid indole test for the purpose of including uropathogens other than Escherichia coli in approximately one-half of the specimens. The other half of the specimens were divided between E. coli-containing specimens and specimens determined to have ““no significant growth” or no growth” (see definitions below). Because most UTIs involve a single uropathogen, specimens determined by the clinical microbiology laboratory to have more than one organism present were excluded. Blinded specimens selected for inclusion in the study were stripped of patient identifiers and any microbiological data before delivery to the research laboratory for testing with the electrochemical sensor array.
Experiments were performed on all specimens using the 16-sensor array ‘UTI Chip’, in which the UNI, EB, EC, PM, KE, PA, and EF capture probes (defined in Tables 1 and 2) were tested in duplicate. The two remaining sensors served as negative controls (including capture and detector probes without bacterial lysate). […]

[3] = tested on: 16S rRNA in lysates of uropathogens; test: Species specificity of uropathogen probe pairs with the electrochemical sensor array (Example 1); details: probe pairs of Table 1
[4] = specimens with Pseudomonas aeruginosa
[5] = specimens with Serratia marcescens
[6] = specimens with Citrobacter freundii
[7] = specimens with Citrobacter koseri
[8] = specimens with Enterobacter aerogenes
[9] = specimens with Enterobacter cloacae
[10] = specimens with Enterobacteriaceae
[11] = specimens with Escherichia coli
[12] = specimens with Gram-negative bacteria
[13] = specimens with Klebsiella pneumoniae
[14] = specimens with Proteus mirabilis

EB1275C (23 mer)/EB1252C (23 mer): Enterobacteriaceae probe pair, SEQ ID NO: 54 and 55 (DNA 1 ACTTTATGAGGTCCGCTTGCTCT; DNA 2 CGCGAGGTCGCCTTCCTTTGTAT; DNA 1: DNA, 5' {Biotin}, backbone and methylation of C not given here; DNA 2: DNA, 3' {Fluorescein}, backbone and methylation of C not given here; listed as Enterobacter sp.)
Species detected (bacterial 16S rRNA [1]): Ec, Kp, Pm, Ea | Species not detected (bacterial 16S rRNA [1]; ambient temperature): Pa, Ef

EF187C (20 mer)/EF167D (20 mer): Enterococcus spp. probe pair, SEQ ID NO: 52 and 53 (DNA 1 ACCGCGGGTCCATCCATCAG; DNA 2 CGACACCCGAAAGCGCCTTT; DNA 1: 5' {Biotin}, sugars by position and backbone not given here; DNA 2: 3' {Fluorescein}, sugars by position and backbone not given here; listed as Enterococcus sp.)
Species detected (bacterial 16S rRNA [1]): Ef | Species not detected (bacterial 16S rRNA [1]; ambient temperature): Ea, Ec, Kp, Pa, Pm

KP436C (11 mer)/KP425D (11 mer): Klebsiella pneumoniae probe pair, SEQ ID NO: 48 and 49 (DNA 1 CTYAHCGCCTT; DNA 2 CCTCCCCGCTG; DNA 1: 5' {Biotin}, sugars by position, backbone and the base at N not given here; DNA 2: 3' {Fluorescein}, sugars by position and backbone not given here; listed as Klebsiella pneumoniae)
Species detected (bacterial 16S rRNA [1]): Kp | Species not detected (bacterial 16S rRNA [1]; ambient temperature): Ea, Ec, Ef, Pa, Pm

PA122C (15 mer)/PA107D (15 mer): Pseudomonas aeruginosa probe pair, SEQ ID NO: 50 and 51 (DNA 1 CCCACTTTCTCCCTC; DNA 2 AGGACGTATGCGGTA; DNA 1: 5' {Biotin}, sugars by position and backbone not given here; DNA 2: 3' {Fluorescein}, sugars by position and backbone not given here; listed as Pseudomonas aeruginosa)
cross-reactivity with P. mirabilis 16S (bacterial 16S rRNA [1]; ambient temperature): Weak cross-reactivity | Species detected (bacterial 16S rRNA [1]): Pa | Species not detected (bacterial 16S rRNA [1]; ambient temperature): Ea, Ec, Ef, Kp, Pm*

PM197C (21 mer)/PM176D (21 mer): Proteus mirabilis probe pair, SEQ ID NO: 46 and 47 (DNA 1 CATCCGATAGTGCAAGGTCCG; DNA 2 AAGAGCCCCTGCTTTGGTCCG; DNA 1: 5' {Biotin}, sugars by position and backbone not given here; DNA 2: 3' {Fluorescein}, sugars by position and backbone not given here; listed as Proteus mirabilis)
Species detected (bacterial 16S rRNA [1]): Pm | Species not detected (bacterial 16S rRNA [1]; ambient temperature): Ea, Ec, Ef, Kp, Pa

B1: PA: Pseudomonas aeruginosa probe pair: capture SEQ ID NO: 7, detector SEQ ID NO: 8 (nucleic acid, listed as Pseudomonas aeruginosa)
DNA 1: CCCACTTTCTCCCTCAGGACGTATGCGGTATTAGC
DNA 2: TTCCGGACGTTATCCCCCACTACCAGGCAGATTCC
modifications: DNA 1: DNA, 5' {Biotin}, backbone and methylation of C not given here; DNA 2: DNA, 5' {Fluorescein}, backbone and methylation of C not given here
Mean (range) (bacterial 16S rRNA [2]; [4]): 0.55 log10 units over background | Positive/Total = Percent (bacterial 16S rRNA [2]; [4]): Pa 1/1 = 100% | Mean (range) (bacterial 16S rRNA [2]; [5]): Pa 0.36 log10 units over background | Positive/Total = Percent (bacterial 16S rRNA [2]; [5]): False Positive | Species detected [3]: Pa | Species not detected [3]: Ec, Ef, El, Eo, Kp, Pm

B2: EB: Enterobacteriaceae probe pair: capture SEQ ID NO: 11, detector SEQ ID NO: 12 (nucleic acid, listed as Enterobacter sp.)
DNA 1: CGGACTACGACATACTTTATGAGGTCCGCTTGCTC
DNA 2: GAGGTCGCTTCTCTTTGTATATGCCATTGTAGCAC
modifications: DNA 1: DNA, 5' {Biotin}, backbone and methylation of C not given here; DNA 2: DNA, 5' {Fluorescein}, backbone and methylation of C not given here
sensitivity for detection of Gram-negative bacteria in clinical urine specimens (bacterial 16S rRNA [2]): 98% | Positive/Total = Percent (bacterial 16S rRNA [2]; All specimens with bacteria): 46/47 = 98%^2 | Positive/Total = Percent (bacterial 16S rRNA [2]; No Growth specimens): 0/12 = 0% | Positive/Total = Percent (bacterial 16S rRNA [2]; No Significant Growth specimens): 0/8 = 0% | Mean (range) (bacterial 16S rRNA [2]; [6]): 1.32 (1.25-1.38) log10 units over background | Positive/Total = Percent (bacterial 16S rRNA [2]; [6]): 2/2 = 100% | Mean (range) (bacterial 16S rRNA [2]; [7]): 1.29 log10 units over background | Positive/Total = Percent (bacterial 16S rRNA [2]; [7]): 1/1 = 100% | Mean (range) (bacterial 16S rRNA [2]; [8]): 1.20 (0.82-1.52) log10 units over background | Positive/Total = Percent (bacterial 16S rRNA [2]; [8]): 5/5 = 100% | Mean (range) (bacterial 16S rRNA [2]; [9]): 1.08 log10 units over background | Positive/Total = Percent (bacterial 16S rRNA [2]; [9]): 1/1 = 100% | Mean (range) (bacterial 16S rRNA [2]; [10]): 1.17 (0.46-1.60) log10 units over background | Positive/Total = Percent (bacterial 16S rRNA [2]; [10]): 46/47 = 98% | Positive/Total = Percent (bacterial 16S rRNA [2]; specimens with Enterococcus species): 0/8 = 0% | Mean (range) (bacterial 16S rRNA [2]; [11]): 1.17 (0.46-1.60) log10 units over background | Positive/Total = Percent (bacterial 16S rRNA [2]; [11]): 25/26 = 96% | Mean (range) (bacterial 16S rRNA [2]; [12]): 1.17 (0.46-1.60) log10 units over background | Positive/Total = Percent (bacterial 16S rRNA [2]; [12]): 46/47 = 98%^2 | Positive/Total = Percent (bacterial 16S rRNA [2]; specimens with Gram-positive bacteria): 0/10 = 0% | Mean (range) (bacterial 16S rRNA [2]; [13]): 1.13 (0.46-1.13) log10 units over background | Positive/Total = Percent (bacterial 16S rRNA [2]; [13]): 8/8 = 100% | Mean (range) (bacterial 16S rRNA [2]; [14]): 1.14 (0.92-1.45) log10 units over background | Positive/Total = Percent (bacterial 16S rRNA [2]; [14]): 3/3 = 100% | Positive/Total = Percent (bacterial 16S rRNA [2]; [4]): 0/1 = 0% | Mean (range) (bacterial 16S rRNA [2]; [5]): 1.36 log10 units over background | Positive/Total = Percent (bacterial 16S rRNA [2]; [5]): 1/1 = 100% | Positive/Total = Percent (bacterial 16S rRNA [2]; specimens with Staph. saprophyticus): 0/2 = 0% | Species detected [3]: Cf, Ea, Ec, El, Ko, Kp, Mm, Pm, | Species not detected [3]: Ef, Eo, Pa, Sa, Ss

B3: KE: Klebsiella & Enterobacter spp. probe pair: capture SEQ ID NO: 5, detector SEQ ID NO: 6 (nucleic acid, listed as Enterobacter sp.)
DNA 1: GTCAATCGMCRAGGTTATTAACCTYAHCGCCTTCC
DNA 2: CTGAAAGTGCTTTACAACCCGAAGGCCTTCTTCAT
modifications: DNA 1: DNA, 5' {Biotin}, backbone, methylation of C and the base at N not given here; DNA 2: DNA, 5' {Fluorescein}, backbone and methylation of C not given here; Capture probe contains degenerate positions (M, R, Y, H)
Mean (range) (bacterial 16S rRNA [2]; [8]): 0.86 (0.37-1.26) log10 units over background | Positive/Total = Percent (bacterial 16S rRNA [2]; [8]): KE 5/5 = 100% | Mean (range) (bacterial 16S rRNA [2]; [9]): 0.34 log10 units over background | Positive/Total = Percent (bacterial 16S rRNA [2]; [9]): KE 1/1 = 100% | Mean (range) (bacterial 16S rRNA [2]; [13]): 1.16 (0.76-1.50) log10 units over background | Positive/Total = Percent (bacterial 16S rRNA [2]; [13]): KE 7/8 = 88% | Species detected [3]: Ea, El, Ko, Kp | Species not detected [3]: Cf, Ec, Pa, Pm

Reference: patent US7763426B2, “Probes and methods for detection of Escheridia coli and antibiotic resistance” (priority 2004, dated 2010)
